Laboratory results as given in the supplement of paper PMC9732359.
± gives the uncertainty stated by the source.

Assay: protein stability index of a GFP-peptide fusion (yeast GPS) (PSI 1-4); higher = more stable; sorted into four equal gates, so the index is relative within each strain
Method in brief: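 Mid-log yeast cultures in leucine-free medium, carrying a pooled plasmid library, were sorted into four equal gates by their GFP/Cherry fluorescence ratio. Each plasmid expressed Cherry along with GFP fused upstream of a tiled 17-residue yeast protein peptide. Plasmids recovered from each gate were PCR-amplified and Illumina-sequenced, with reads assigned to strains by barcodes. The protein stability index was obtained by summing each gate's read frequency weighted by its gate number.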

Row | Sequence | protein stability index (doa10∆) | protein stability index (pdr5∆) | protein stability index (san1∆) | protein stability index (ubr1∆)
1 | NIVNDFTPEEEAAIRRE [SKP1] | 2.28 ± 0.14 | 2.73 ± 0.079 | 3.08 ± 0.13 | 3.02 ± 0.086
2 | MPGSQINSPMPQQAQMQ [SNF2] | 2.9 ± 0.081 | 2.87 ± 0.096 | 3.05 ± 0.07 | 2.95 ± 0.097
3 | DMLTWVDSNLPDDEKFT [RPC40] | 2.92 ± 0.074 | 3.14 ± 0.063 | 2.56 ± 0.16 | 3.26 ± 0.074
4 | RRRSSTNKSKRPSITEA [MED1] | 3.02 ± 0.09 | 3.15 ± 0.061 | 2.87 ± 0.08 | 3.04 ± 0.077
5 | ELGEFFVNGVATSFSRK [FAS2] | 2.98 ± 0.07 | 2.6 ± 0.075 | 2.63 ± 0.1 | 2.69 ± 0.048
6 | FLKVKGLVKQHLDSFNY [RET1] | 3.09 ± 0.17 | 3.18 ± 0.1 | 2.78 ± 0.29 | 2.94 ± 0.19
7 | SIIQSKQDCVDWFTYSY [BRR2] | 1.58 ± 0.037 | 1.78 ± 0.037 | 1.69 ± 0.085 | 1.97 ± 0.033
8 | DIVPYFLKHNGEEDAVD [RPN1] | 3.26 ± 0.12 | 3.27 ± 0.18 | 2.95 ± 0.17 | 3.22 ± 0.094
9 | VTPNDKIPEREEKSNEV [SIR4] |  | 3.16 ± 0.24 | 3.42 ± 0.21 | 
10 | SKAPAEKKPAAKKTSTS [HTB1] | 3.17 ± 0.13 | 3.01 ± 0.069 | 2.83 ± 0.08 | 3.33 ± 0.11
11 | SCIAVMAGLMHFKKPDI [RRP45] | 2.02 ± 0.062 | 1.66 ± 0.053 | 1.77 ± 0.08 | 1.69 ± 0.035
12 | VGKLFRVGVVSILEAGD [RPL30] | 1.99 ± 0.097 | 1.36 ± 0.093 | 1.58 ± 0.17 | 1.67 ± 0.081
13 | SLDAREANFDLINIDTS [RPC40] | 3.5 ± 0.078 | 3.22 ± 0.066 | 3.18 ± 0.058 | 3.04 ± 0.071
14 | DNFSPHQNVIIGSNGSG [SMC3] |  | 2.89 ± 0.14 | 2.78 ± 0.088 | 3.28 ± 0.079
15 | EDTLSGYDPIVSTRAID [PRP28] | 2.51 ± 0.2 | 2.67 ± 0.12 | 3.13 ± 0.15 | 3.16 ± 0.093
16 | LRNVFLGKCSRITDASL [GRR1] | 2.94 ± 0.066 | 2.81 ± 0.097 | 2.68 ± 0.07 | 2.82 ± 0.05
17 | TRIFQALPRKLRRRTAS [POP1] | 2.33 ± 0.07 | 3.23 ± 0.11 | 2.68 ± 0.14 | 2.73 ± 0.074
18 | NLKQANNVAYGKKRFRV [SMC4] | 2.41 ± 0.11 | 2.62 ± 0.077 | 2.09 ± 0.095 | 2.31 ± 0.054
19 | FVKFLSKKGSLENNIRE [RPL10] | 3.32 ± 0.18 | 3.32 ± 0.16 | 3.11 ± 0.076 | 3.3 ± 0.057
20 | NYDTCGGESAYFFQLQI [RPC11] | 2.72 ± 0.2 | 2.75 ± 0.15 | 2.04 ± 0.14 | 2.94 ± 0.14
21 | IYNSASKASMQKEQNVN [YCS4] | 1.65 ± 0.13 | 2.11 ± 0.13 | 1.58 ± 0.22 | 2.17 ± 0.077
22 | EKRIQYAKDILQKEFLP [RPB2] | 2.06 ± 0.055 | 1.85 ± 0.052 | 2.06 ± 0.091 | 2.08 ± 0.09
23 | NLEFDSTNHPDYDVSKK [SRP14] | 3.15 ± 0.092 | 3.25 ± 0.12 | 3.2 ± 0.048 | 3.15 ± 0.065
24 | RNETSVDEEDENGTHND [YCG1] | 3.08 ± 0.26 |  |  | 
25 | AQAQAQAQAQVYAQQST [PGD1] | 2.87 ± 0.053 | 3.05 ± 0.052 | 2.97 ± 0.045 | 3.01 ± 0.044
26 | LSIELEGGKNQAELLQL [YJL039C/NUP192] | 2.85 ± 0.14 | 3.11 ± 0.099 | 3.31 ± 0.21 | 2.67 ± 0.11
27 | HIRRMVPLAMGIVSVSD [RPN1] | 1.32 ± 0.039 | 1.61 ± 0.052 | 1.55 ± 0.083 | 1.57 ± 0.044

Row | Sequence | protein stability index (doa10∆) | protein stability index (pdr5∆) | protein stability index (san1∆) | protein stability index (ubr1∆)
28 | FDRLVAGQIPTGWNAKT [FAS2] | 2.15 ± 0.18 |  |  | 
29 | KLRARLVEYGFDPSRIK [SMC2] | 2.73 ± 0.06 | 2.62 ± 0.092 | 2.33 ± 0.08 | 2.01 ± 0.034
30 | PTGGKAKLSEGTSFRRK [RPS27A] | 3.4 ± 0.081 | 3.33 ± 0.11 | 3.33 ± 0.065 | 3.33 ± 0.059
31 | FFTNPNKKRPSSKKVFS [YOR098C/NUP1] | 2.85 ± 0.059 | 3.1 ± 0.054 | 3.06 ± 0.046 | 3 ± 0.05
32 | NYFVDTDLKKIIKANQL [RET1] | 2.88 ± 0.058 | 2.85 ± 0.066 | 3.01 ± 0.044 | 2.53 ± 0.036
33 | SWNESEDTLSGYDPIVS [PRP28] | 3.04 ± 0.12 | 3.14 ± 0.12 | 3.19 ± 0.076 | 3.44 ± 0.06
34 | VDLTSSNFADSADYEIL [YDL116W/NUP84] | 2.84 ± 0.087 | 3.12 ± 0.098 | 3.31 ± 0.093 | 3.29 ± 0.09
35 | TKAIQGCSKICDLSSKF [YCS4] | 3.15 ± 0.083 | 3.2 ± 0.069 | 3.37 ± 0.037 | 3.06 ± 0.098
36 | KALLFFNNEKETEKFAL [RPN12] | 3.25 ± 0.084 | 3.03 ± 0.12 | 3.31 ± 0.059 | 3.17 ± 0.083
37 | SSPSHIELVVTEKEEAV [RPL17A] | 2.08 ± 0.051 | 2.74 ± 0.045 | 2.3 ± 0.059 | 2.08 ± 0.039
38 | KDAEDETSSDGSKSDGS [RPN1] | 3.38 ± 0.051 | 3.41 ± 0.054 | 3.64 ± 0.047 | 3.29 ± 0.035
39 | SELLARDIFQEDEENSD [RGR1] | 3.48 ± 0.12 | 3.37 ± 0.12 | 3.02 ± 0.14 | 3.27 ± 0.17
40 | IEKVDRENMICKIDFQK [RRI2] | 3.04 ± 0.11 | 3.03 ± 0.1 | 3.18 ± 0.063 | 3.15 ± 0.065
41 | KKMDDYIHRIGRTGRAA [PRP28] | 3.17 ± 0.1 | 3.28 ± 0.092 | 3.27 ± 0.045 | 3.35 ± 0.07
42 | SKNAERKWAARAASAKI [RPS8A] | 3.135 ± 0.03 | 3.212 ± 0.028 | 3.173 ± 0.022 | 3.219 ± 0.026
43 | ERDEQKRAEKKAKERLQ [SNF2] | 3.29 ± 0.12 | 3.45 ± 0.16 | 2.98 ± 0.13 | 3.4 ± 0.12
44 | HSSSVFKGTDFVHSVKK [SRB4] | 2.75 ± 0.073 | 2.93 ± 0.074 | 3.15 ± 0.048 | 2.99 ± 0.056
45 | GRHVATCSSDQHIKVFK [YGL100W/SEH1] | 2.71 ± 0.066 | 2.76 ± 0.059 | 2.57 ± 0.08 | 2.75 ± 0.052
46 | TAKETKMLMNLHKEQWQ [RPN11] | 3.28 ± 0.097 | 3.36 ± 0.082 | 3.5 ± 0.036 | 3.42 ± 0.068
47 | KRVKSYMDKAKQYDNRI [LRP1] | 2.87 ± 0.047 | 2.89 ± 0.042 | 2.92 ± 0.04 | 2.83 ± 0.042
48 | TPSDLSESGSKLNVDQF [POP1] | 3.46 ± 0.098 | 3.4 ± 0.094 | 3.19 ± 0.072 | 3.21 ± 0.1
49 | MKRADKFKDMGIRAPKG [RPT5] | 2.89 ± 0.1 | 3.38 ± 0.16 | 2.98 ± 0.13 | 3.3 ± 0.12
50 | LERTDLKSKVIDSPELL [RPN7] | 3.17 ± 0.073 | 3.01 ± 0.083 | 3.26 ± 0.085 | 3.2 ± 0.076
51 | VDSRTKIRMLTQAAEFL [IRR1] | 2.47 ± 0.11 | 2.96 ± 0.084 | 1.78 ± 0.11 | 2.81 ± 0.079
52 | ALALYVDAYRRLENKLS [SRP68] | 1.78 ± 0.2 | 1.42 ± 0.11 |  | 1.52 ± 0.1
53 | GKAKGDIPGVRFKVVKV [RPS23A] | 3.32 ± 0.19 | 3.42 ± 0.18 |  | 
54 | VKSEVDVQVDAEEKREA [ITC1] | 3.22 ± 0.17 | 2.97 ± 0.21 | 3.12 ± 0.23 | 3.16 ± 0.11
